In paper doi:10.1101/824458 (bioRxiv, 2019):

B1: viperin-ΔN50 (residues 50-361), recombinant, C-terminal His6-tagged, iron-sulfur cluster reconstituted (domain or fragment, human, UniProt Q8WXG1 50-361, looked up)
chain: QLVLRGPDETKEEEEDPPLPTTPTSVNYHFTRQCNYKCGFCFHTAKTSFVLPLEEAKRGLLLLKEAGMEKINFSGGEPFLQDRGEYLGKLVRFCKVELRLPSVSIVSNGSLIRERWFQNYGEYLDILAISCDSFDEEVNVLIGRGQGKKNHVENLQKLRRWCRDYRVAFKINSVINRFNVEEDMTEQIKALNPVRWKVFQCLLIEGENCGEDALREAERFVIGDEEFERFLERHKEVSCLVPESNQKMKDSYLILDEYMRFLNCRKGRKDPSKSILDVGVEEAIKFSGFDEKMFLKRGGKYIWSKADLKLDW
B2: VAP-33-ΔC20 (recombinant human VAP-33 protein, residues 1-227) (domain or fragment, UniProt Q9P0L0 1-227, looked up)
chain: MASASGAMAKHEQILVLDPPTDLKFKGPFTDVVTTNLKLRNPSDRKVCFKVKTTAPRRYCVRPNSGIIDPGSTVTVSVMLQPFDYDPNEKSKHKFMVQTIFAPPNTSDMEAVWKEAKPDELMDSKLRCVFEMPNENDKLNDMEPSKAVPLNASKQDGPMPKPHSVSLNDTETRKLMEECKRLQGEMMKLSEENRHLRDEGLRLRKVAHSDKPGSTSTASFRDNVTSP

Legend:
[1] = molecular target: NS5A-ΔN39 (residues 39-447), recombinant, lacking the membrane-binding amphipathic helix (hepatitis C virus) (UniProt Q9WMX2); assay: cross-linking
cross-linking = molecular target: the molecule itself; assay: cross-linking

Row | Molecule | stoichiometry N [1] | stoichiometry N (cross-linking)
1 | NS5A-ΔN39 (residues 39-447), recombinant, lacking the membrane-binding amphipathic helix (from UniProt Q9WMX2 40-448) (domain or fragment) | 2 | –
2 | B1 | – | 2
3 | B2 | – | 2
